In FireProtDB (doi:10.1074/jbc.272.30.18686):

B1: Ribonuclease HI, P0A7Y4 (parent)
chain: MLKQVEIFTDGSCLGNPGPGGYGAILRYRGREKTFSAGYTRTTNNRMELMAAIVALEALKEHCEVILSTDSQYVRQGITQWIHNWKKRGWKTADKKPVKNVDLWQRLDAALGQHQIKWEWVKGHAGHPENERCDELARAAAMNPTLEDTGYQVEV

Variants of: B1
Settings: Escherichia coli (strain K12), pH 3.2, Thermal, CD, glycine-HCl 10 mM, reversible: yes, structure 2RN2, whole UniProt chain shown; for ddG of mutation (higher = less stable): 53 °C

Variant	ddG of mutation (higher = less stable) [kcal/mol]	Tm [°C]	change of melting temperature, mutant - wild type (higher = more stable) [°C]	unfolding enthalpy (van 't Hoff) [kcal/mol]
MLKQVEIFTDGSCLGNPGPGGYGAILRYRGREKTFSAGYTRTTNNRMELMAYIVALEALKEHCEVILSTDSQYVRQGITQWIHNWKKRGWKTADKKPVKNVDLWQRLDAALGQHQIKWEWVKGHAGHPENERCDELARAAAMNPTLEDTGYQVEV	2.3	45.4	-7.6	70.8
MLKQVEIFTDGSCLGNPGPGGYGAILRYRGREKTFSAGYTRTTNNRMELMAFIVALEALKEHCEVILSTDSQYVRQGITQWIHNWKKRGWKTADKKPVKNVDLWQRLDAALGQHQIKWEWVKGHAGHPENERCDELARAAAMNPTLEDTGYQVEV	–	51.5	-1.5	89
MLKQVEIFTDGSCLGNPGPGGYGAILRYRGREKTFSAGYTRTTNNRMELMAGIVALEALKEHCEVILSTDSQYVRQGITQWIHNWKKRGWKTADKKPVKNVDLWQRLDAALGQHQIKWEWVKGHAGHPENERCDELARAAAMNPTLEDTGYQVEV	–	44.1	-8.9	91
MLKQVEIFTDGSCLGNPGPGGYGAILRYRGREKTFSAGYTRTTNNRMELMAHIVALEALKEHCEVILSTDSQYVRQGITQWIHNWKKRGWKTADKKPVKNVDLWQRLDAALGQHQIKWEWVKGHAGHPENERCDELARAAAMNPTLEDTGYQVEV	–	41.2	-11.8	84.7
MLKQVEIFTDGSCLGNPGPGGYGAILRYRGREKTFSAGYTRTTNNRMELMAFIVALEALKEHCEVILSTDSQYARQGITQWIHNWKKRGWKTADKKPVKNVDLWQRLDAALGQHQIKWEWVKGHAGHPENERCDELARAAAMNPTLEDTGYQVEV	–	48.4	-4.6	85.8
MLKQVEIFTDGSCLGNPGPGGYGAILRYRGREKTFSAGYTRTTNNRMELMAVIVALEALKEHCEVILSTDSQYLRQGITQWIHNWKKRGWKTADKKPVKNVDLWQRLDAALGQHQIKWEWVKGHAGHPENERCDELARAAAMNPTLEDTGYQVEV	-2.43	61	8.07	126
